From publication PMC8223533

What was measured:
[1] = target: SctV (SsaV) of the Salmonella enterica serovar Typhimurium SPI-2 injectisome, full-length, C-terminal 6xHis (Salmonella enterica serovar Typhimurium (strain 12023)) (UniProt P74856); assay: cryo-EM structure; DDM-solubilised full-length SctV at ~1 mg/ml on continuous carbon film; C9 symmetry imposed, refinement focused on the cytoplasmic domain; buffer pH 8.0
[2] = target: SctV (SsaV) of the Salmonella enterica serovar Typhimurium SPI-2 injectisome, full-length, C-terminal 6xHis (Salmonella enterica serovar Typhimurium (strain 12023)) (UniProt P74856); assay: cryo-EM 2D classification; amphipol A8-35-stabilised SctV on UltrAufoil gold grids without support film; 2D class averages only
[3] = target: SctV (SsaV) of the Salmonella enterica serovar Typhimurium SPI-2 injectisome, full-length, C-terminal 6xHis (Salmonella enterica serovar Typhimurium (strain 12023)) (UniProt P74856); assay: SEC; Superose 6 10/300, 50 mM Tris-HCl pH 8.0, 50 mM NaCl, 0.03% DDM, 5 mM DTT; DDM-solubilised SctV
[4] = target: SctV (SsaV) of the Salmonella enterica serovar Typhimurium SPI-2 injectisome, full-length, C-terminal 6xHis (Salmonella enterica serovar Typhimurium (strain 12023)) (UniProt P74856); assay: negative stain EM; purified SctV at about 0.05 mg/ml, 2% uranyl acetate, continuous carbon grids

Measured: stoichiometry N

SctV (SsaV) of the Salmonella enterica serovar Typhimurium SPI-2 injectisome, full-length, C-terminal 6xHis (from UniProt P74856 1-681) (natural protein)
9: all assays above
